Data: US7033766B2, “Construction and screening of lantibody display libraries” (University of Maryland Office of Technology …, priority 2000, dated 2006)

Tested on: anti-sublancin antibodies
Assay: binding of anti-sublancin polyclonal antibodies to the displayed peptide (peroxidase colour reaction, magnetic beads)
Conditions: rabbit antibodies raised against sublancin-KLH conjugate
Experimental: The transformed host was cultured in Medium A to allow the Lantibody Display Peptide to be expressed. Expression was monitored by observing the appearance of the Display Peptide in the cytoplasm of the cell, the membrane, the cell wall and in the extracellular medium. The peptide was detected using polyclonal antibodies raised in rabbits against a sublancin-KLH conjugate as an antigen.
To explore this hypothesis, cells expressing the Lantibody Display Peptide as shown in FIG. 8 were centrifuged out of the culture medium and resuspended in buffer. The cell suspension was treated with anti-sublancin antibodies, and washed to remove any unbound antibody. To determine whether anti-sublancin antibodies were bound to the surface of the cells, goat anti-rabbit antibodies that were conjugated with horseradish peroxidase were added and allowed to adsorb to any antibodies on the surface of the cells. The cells were washed and the peroxidase color reagent was added.

B1: sublancin Display Peptide: mature sublancin segment (1–37), a 20-residue polyglycine spacer (38–57) and the subtilin leader segment (58–81) (protein)
chain: MEKLFKEVKLEELENQKGSGLGKAQCAALWLQCASGGTIGCGGGAVACQNYRQFCRGGGGGGGGGGGGGGGGGGGGMSKFDDFDLDVVKVSKQDSKITPQ
modifications: The peptide sequence of sunA-PG20-SL.
binding to polyclonal anti-sublancin antibody: recognize and bind to a target substrate | binding to polyclonal anti-sublancin antibody (listed as Sublancin Display Peptide): responsible for the binding to sublancin antibodies
